Assay: soluble fraction after stress (log2 fold change); higher = more stays soluble; pooled small domains, quantitative proteomics
Details: stress: 75 degC
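Also: 20 min heating vs room temperature control held 20 min.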

Row | Sequence | soluble fraction (log2)
1 | HMTGETWAERSRALAAAGLIVMGQEAKNKIEDLPSLSPLIEAAAASETRLLTGQIIDELLAFV | -0.589
2 | HMTGIELLSHREHQVYDLLTQGRTVTEIGAQLNLAPNTVSTYRARILEKTGTKNDVELALYAQRH | -0.22
3 | HMTGKASEIAALLEQRIAAGDYPAGSKLPSERELAASFHVSRNTIRDAIALLAARKIVSTKWGAGTVVLG | -0.967
4 | HMTGLRETIPAALDGERLDRVVALLGDVSRSRASAALEAERVTLDGEVVTLRSHRVREGEELTVAGFE | 0.417
5 | HMTGLSAQILAKLRDNHGVLPVSDKSDPAVISNLFGVSKGNFKKAIGGLYKEGQIVIHADRIEL | -0.0972
6 | HMTGLSFEEKDLLGNALKLLDETERRIVILHATSGLKHREIAKQLDIPLPTVLSKYTRAIKKLKKHME | -1.14
7 | HMTGPSYTTRRVEAAETMMEFLRTFPQAAPFIGDLYVKAQDWPLGEEIGDRLKKMLPPQLQE | -0.698
8 | HMTGQVASMVERLAQRLKDQPQDAEGWAMLARSYSVLGRHPEALQAYEKALALRKDDANLLADYADSLA | -0.23
9 | HMTGRHEEAIQELKRTLELHPQKPKIFLLLGVSYLRLNNLKKAVEAFNTVLLLQPKNQKALTMLKEIKKR | -0.178
10 | HMTGSLLVEVQGRPDADRLLGQALVDAGLTARPAGGALIEVEVRDETTPDVVRDLTVDLGLGLVRMQERH | -0.548
11 | HMTGSLRIKHKTYYMLFSWKDESGQWRQKSESTGIPERGGKRKAQEMLNTRLEELQLQSTASL | -3.87
12 | HMTGSLRVTSSPSGAEIYVDEIYRGYTPLTIGSLSTGRHEVRLHLSGYQDYTRTVEIESGSQSSFSVTLT | -1.46
13 | HMTGSTSVAQVSTPSGSLNLRAYASTSARVLLQIPEYAFVTVYNRGATWSYVSYNGVSGYVMSVYLSFGG | -2.31
14 | HMTGTVKVNSLNVYKSASLDSEVKDTLVLNTKVTIAENGQVTDGIYVWGRLQSGEGYVQMNNLTL | -0.418
15 | HMTHRRLELTLDAIDERLDRALTAAVPELSRMQWQRLIREGLVTVDGERARPSYRIQGGETLVALVPEV | -0.448
16 | HMTIAEGLIFRFTEPFKPIDQYTYYIMGDNKVEQIPNFKTLEVMLAQRNQNYLSVRVIEKSQLDDILKEF | -4.16
17 | HMTIDETKKQQVKDGLKDIPGVTVEFVGDKAVLKGAVTDANRVKIMQIVMAAKVLSDASGLTSK | -0.422
18 | HMTIDTSNDLLNQITEATSKGPISILELKDQLNVNASDIEGELRTLIDQHLVFLKDGMLQVIPFD | 0.797
19 | HMTIEEMAIENINFSTQLLYKAMKYNGVNTVGDLLEKARSKKDLLTMAYIGNKEAEEIIEKLSELGITI | -1.63
20 | HMTIFGWQQDETGKWYRNADGTFYENGWKEIDGAQYYFDENGYVTTGWLELDGKDYYFDEEGKYDSTKVR | -0.445
21 | HMTIGPALAIGGNKVEMTQQGKIQVTNPQGKIKTLSQDEFKKQLVKNADKIEAGQDFEFKKD | 0.275
22 | HMTIKLFPNPSTDFIRVSELSAKENYKIYTILGSEIKRGSVSNNETIDIRNLNSGVYLLKFDNGTTKKIVK | -1
23 | HMTIKTAFPAEDLAKPDNFKSLLYYFGLLTIRGTKWGSTLLAIPNLTVREQLYSYLVEAYRSADL | 0.331
24 | HMTILKEGMSGPEVERLQDALKRHGFDPGRVDGQFGPGTEAAILAFQKSEGLRADGVAGPKTQQALGLE | 0.121
25 | HMTIRLKELRKQKGNTQAEVAKILGTNQSQYGKYENERTQLSLDNAKILSDYFGVSVPYLLGLDDNP | -0.361
26 | HMTISDTAYQAFLEQLGVGMVVEHKRFGEGVITGMPKGKIRITFEEGTKSFQARALAESGMLK | -0.875

Row | Sequence | soluble fraction (log2)
27 | HMTISIAEQIFEQLEREILSGAYPRGELLTETKLSEKLGVSRTPIREALRRLDQEHIIKMTTKGAFVLGI | -2.4
28 | HMTITIGNSDGGYMKMGADGFEVRFSGSDGGNHYAKMYYNNDGWARLTLGSYGEEKARIDSDGMIQTR | 0.108
29 | HMTKEAIAQKLRIARQESGLTQKDVSAKIGRPQQTIASWEVGRSQPDADTLYSLLLLYKVSPNTFFEYD | -1.18
30 | HMTKEEIVVNWLPRYTKRNLEDFGEYILLTNFNKYVEIFAEKFNVPILGRDANMISASAEGITIIN | -0.409
31 | HMTKEEREKREKYEKLMKKAEELTAAKNHREVINVLGQAKAYATAAQLKEIEEKIKAATSEMNK | 0.326
32 | HMTKEGVNISITADGVQLSTESPNRVSIFNVNGTKVWEGIAPANVSLQKGVYILQTANGNTKFV | 0.597
33 | HMTKLLITNYERNVLINSYLLKNTPELDDIRRLLVHNKHISENDVSTEMARRIKKHKADWLRVT | -3.4
34 | HMTKLTPLEVNLYAKKLANDPEFGSKHIEPGESFSQAEERLRVQLSQQEYVQKYSKYLKKLKASA | -0.198
35 | HMTKPAEVRIDELMNAAQTLFLAKGVEATTISEIIASVGVAKGTFYHYFESKQHIVEALKKRYID | -1.85
36 | HMTKQNVVPLMYRMIDTLEQFIKADVPFNIETRLARVERLRETMVSSSVTTSEKFRQVLEAYTIETD | -1.05
37 | HMTKSEWLRESREHLGLSQTDLRNLLNTALNRSYDKSRISRWENSKENIPAEVVKQIESLIATR | -0.0559
38 | HMTKTRTEILEYLKQNWSVTVSASDIKKHLEEKEIKANTTTIYRYLDKLLAEHVIIKYADAGSERAVYQYS | -2.23
39 | HMTKVIEFLVSDEEHGVRADKAFVSHNQKLSRSYFKKLILNGNLYINNKVNLDPSYKLIKGSTVRIILPE | -2.58
40 | HMTKVKIDRLFSIVQMLVNRKSVTAKELADYFNVSVRTIYRDIEILSANGIPIYATQGKGGGISILEN | -1.74
41 | HMTKYEGLSLDLIIDGVVITHNLKLAKLDMNWLLDRLKENGWDNPKDIFYAYIDTAGNFRFQPKLKASRTR | 0.473
42 | HMTKYREVLRMSAGGFSQRVIASTLSISRNTVASTLKRAREQNLDWEAVEQQRLSEKDIANLLFP | -3.22
43 | HMTLAEEFNNLNGKVITRETLESLLVKAEKEQNSTISNRIRKVLQAYTADTFLIELQHTESA | -0.0241
44 | HMTLALKQGSTGSTVKQVQQKLKNWGYYSGAVDGIFGSGTRKAVVLFQKRNKLTADGIVGSKTLEALGIYV | -2.36
45 | HMTLDDSIALGRSLLDKGLMDFGTNLANLAEDKLRDFLSQQRYENLDDLFADIARGNRLPMFTAQQLLS | -0.0666
46 | HMTLDVALSKEIKYMLKEEHYLPGDKLPSERKLAELFHVQRLTVRGALNLLLQDKTIISKPRSGYYVAPKR | -2.88
47 | HMTLFDESGYTARELEIIREVANGLSNKEIADKLFLSEGTVKNYITGILAKENLSHRTALAVYYLTGRK | -1.83
48 | HMTLHEAMEKLFRQVGRPMTTKEIAEKLNENKWYQKADGSPLTPYQIYGRAKNYPALFHREGSIIYLKGS | -0.547
49 | HMTLKTISLTEAIKNTNEGNYSKLVLDGNELTITEQGKETPSLKTYTEPGTSLKEQGFDLSKVEFEAREQS | -0.0223
50 | HMTLNQEELMGKTEAILFAGGEPVSLDRIAQVLGVRTPVIDSIVSALQEKYNTPTSGIQLMRL | -0.267
51 | HMTLPELTDRELQILQLLSVGNSSQKIAKQLNISTHTVSTHRKQLLRKLGAQNGADLIRRAQKLGIL | -1.78
52 | HMTLQEFYARVGGDYNATLSRLPSEALVKKFILKYPGDPSFAQLKDALAAQDWELAFRASHTLKGVAQN | -1.9

Row | Sequence | soluble fraction (log2)
53 | HMTLSAPMPGTVLKIHVKEGQRVRKGQTLVVLEAMKMEHRIQAPKAGEVTNLHFSEGDRVDMGEILVEIG | -2.34
54 | HMTLSDDEFEIIKSLIIDTLKEEALTINALTKKINHKEAKTIQVIRFLLDNGLVAENNLMKLFVI | -1.43
55 | HMTLTIEDQLRRLRARLGRGRAFLFSDVLVNPHDRTEIAVTLLALLELIKRREAQASQSYLFGPIEVAAA | -2.01
56 | HMTLTLEQAAAIKNSEGEQYGKIESERLAAMSVQIDKAIKSNGHDPNKKADLERKLDAIGIILNARAAG | 0.222
57 | HMTLVKRSAMVTAWSEFAGGRVNSKLIALQNGKAGDWIELENPQSGRKLRGRVQSDGSVRLGS | -1.07
58 | HMTLYITDQMRKILDYVATNQEIDEKAVMDLLSIQRTRAYLIAKKMTDIGLLQVQGRGKTKTYRLAARS | -2.08
59 | HMTLYQIGDKVVHPMHGAGVIDSVVQRKVSGQVQEFYLLKLSVGNMVVMVPTDNTGEIGMRP | -2.52
60 | HMTMEQAEFLSRQFNLLSQRLNDPSIEWQDIADLRSEYTGEDEHRDTIRKGAKLFYEYLEAGWIKN | -0.76
61 | HMTMKNPNGYGSVINLGKGRRRPWAARVTTGLVYDEKKDKLIQRYKYIGYADTRKEAHQILAEYNAGLPI | -1.76
62 | HMTMMTFGEKLQNARKGAGLSQEQLAEKLSVSRSAVAKWENDNGMPDIDNLKAIAQLLDVSIDYLLEN | 0.812
63 | HMTMNLIEIGHVVGARRAELGLTQAQLAHLSGLSRQTVVGLEKGTLSDLGVNRVGQVMAVLGLDS | -0.555
64 | HMTMPDFGYMRVSYAEARRQLQAIGISVSTIEKVEDPSHTSATGDMVISQYPAAGSKIEGTVTLYVSVAS | -3.65
65 | HMTMSFSELLRGLRKSRGMSQAELATAVGLSQAQVSQIETGKLLPSPELIEKLAALYGIALGSA | 0.279
66 | HMTMTKELGQRIRAERTARKMTQEELAERADLHPTYIGQVERGEKSLTIASLEKIVEGLGISFSDLFEN | 0.244
67 | HMTMVKYRYLTDGELKEFEEEFKHFLIANGLHSEEWERLNNEDSNKAIEVVALFSNLILDKV | -1.81
68 | HMTMVLPDAARDKLKAIGLSIEHVEPSPVKDIFTVISREGVSYVSKDGDYIFTGSLFHVKGKDVVNTTEQA | 0.0464
69 | HMTNEAFITPSVLEWAIKRAGVSAESIHKKAEQWVSGKARPTFKQAVDIAKTLQIPFGYLWLKEPPKEQ | -0.949
70 | HMTNELVNVNKLLDVMEPSIPLTALEIMTRLGIKSKETLRNSYLNPAIKLGMINLTSPLKPTSKNQMYYK | -1.02
71 | HMTNKSKQRRNEILRASQELFNKKGFHDTSINDIMRRVGAAKGVFYYYFETKDQILDTLIEQHIA | -0.978
72 | HMTNLTPKQQQIYQFIRASTQANGYPPTLREIGQQVGVRSPSTVKYHLDNLRTLGLLHWDGGKTRSITLP | -0.77
73 | HMTNNFIVTWRNYNEEVLEIDVNVKKGSMPKYNGKTPEREGYQFVGWDPEITEVTKDITYVAQFM | -1.92
74 | HMTNQKEITYSQFRQELDQGSIKSVSLQGSRIRGTYVDGGISFRTLAPNDADLIPSLMKHKVDIQVLPED | 0.292
75 | HMTNSTGWSKSGGTQVTIREGETIYNLSRRYGVPAKSIMEANGIADATAVRAGQRISIPTYSY | -0.0378
76 | HMTNVDELIGKEAVVVKEIRPYTTGEVKLDGKVWRAMSESKQVYKVDEIVTVLRIEGVTMII | -2.46
77 | HMTNVETLVRMRLRSIRTTLGYSLDEIAERSNLSASTVSRIETGKRALSIDVLVPLAAALQVSVDDLLRAE | -2.92

Reference: the domain aggregation screens of Martell et al. (2025)
